Results as given in patent US20160311886A1, “Constructs Binding to Phosphatidylserine and Their Use in Disease Treatment and Imaging” (Board of Regents, The University of Texas System, priority 2005, published 2016).

Experiments:
[1] = Fc-mβ2GPI binding to phospholipids in 10% FBS
Procedure: FIG. 21. Fc-mβ2GPI binds anionic phospholipids. This assay measures Fc-mβ2GPI binding to phospholipids in 10% FBS. The microtiter plates were coated with various lipids, as indicated, and blocked with 1% OVA. Serial dilutions of Fc-mβ2GPI cell culture supernatant were performed in 1% OVA. Binding was detected with anti-mouse IgG-HRP.

[2] = Fc-mβ2GPI binding to PS-coated plates; conditions: cell culture supernatants #8 and #18
Procedure: FIG. 20. Fc-mβ2GPI binds PS on PS-coated plates. In this binding assay, a microtiter plate was coated with PS and blocked with 1% OVA. Serial dilutions of Fc-mβ2GPI cell culture supernatants were performed in 1% OVA. #8 and #18 are two different clones of Fc-mβ2GPI. Binding was detected with anti-mouse IgG-HRP.
Fc-mβ2GPI was able to bind to PS on PS-coated plates.

ABAE cells = assay: Fc-mβ2GPI binding to cells with exposed PS; type: cell-based, bovine
Procedure: FIG. 22A, FIG. 22B and FIG. 22C. Fc-mβ2GPI detects PS exposed on naturally apoptotic ABAE cells. 2×10^4 ABAE cells were seeded onto 8-well glass chamber slides in DMEM+10% FBS overnight at 37° C. The next day, cells were washed and incubated with 2aG4 (FIG. 22A), supernatant from Fc-mβ2GPI transfected CHO cells (FIG. 22B), or mock transfected cells (“control supernatant”, FIG. 22C). 2aG4 and Fc-mβ2GPI were detected with a FITC-labeled secondary antibody (green). The cytoskeletons and nuclei were counter-stained with Texas Red-labeled phalloidin and DAPI (blue), respectively. Arrows highlight apoptotic cells.
FIG. 23A and FIG. 23B. Fc-mβ2GPI detects PS exposed on LPC-treated ABAE cells. 2×10^4 ABAE cells were seeded onto 8-well glass chamber slides in DMEM+10% FBS overnight at 37° C. The next day, cells were washed and incubated supernatant from Fc-mβ2GPI transfected CHO cells. Fc-mβ2GPI was detected with a FITC-labeled secondary antibody (green). The cytoskeletons and nuclei were counter-stained with Texas Red-labeled phalloidin and DAPI (blue), respectively. FIG. 23A and FIG. 23B each depict binding of Fc-mβ2GPI, seen as small pinpoints of green staining.

B1: Fc-mβ2GPI: Fc region of mouse IgG2a attached to full length mouse β2GPI (domains I-V); SEQ ID NO:19 (protein, listed as Mus musculus)
chain: EPRGPTIKPCPPCKCPAPNLLGGPSVFIFPPKIKDVLMISLSPIVTCVVVDVSEDDPDVQISWFVNNVEVHTAQTQTHREDYNSTLRVVSALPIQHQDWMSGKEFKCKVNNKDLPAPIERTISKPKGSVRAPQVYVLPPPEEEMTKKQVTLTCMVTDFMPEDIYVEWTNNGKTELNYKNTEPVLDSDGSYFMYSKLRVEKKNWVERNSYSCSVVHEGLHNHHTTKSFSRTPGKTGGRICPKPDDLPFATVVPLKTSYDPGEQIVYSCKPGYVSRGGMRRFTCPLTGMWPINTLRCVPRVCPFAGILENGIVRYTSFEYPKNISFACNPGFFLNGTSSSKCTEEGKWSPDIPACARITCPPPPVPKFALLKDYRPSAGNNSLYQDTVVFKCLPHFAMIGNDTVMCTEQGNWTRLPECLEVKCPFPPRPENGYVNYPAKPVLLYKDKATFGCHETYKLDGPEEAECTKTRTWSFLPTCRESCKLPVKKATVLYQGMRVKIQEQFKNGMMHGDKIHFYCKNKEKKCSYTVEAHCRDGTIEIPSCFKEHSSLAFWKTDASELTPC
[1]
  binding to phospholipids: binds to the anionic phospholipids PS, PA, PI and PG, but not to the neutral lipids, PC and SM
[2]
  binding to PS on PS-coated plates: bind to PS in a concentration-dependent manner
ABAE cells
  binding to LPC-treated ABAE cells: bind to PS exposed at the cell surface
  staining of naturally apoptotic ABAE cells: stain the apoptotic cells
